Results on 1 substance are retold here after US20040058406A1.

In assay [1] the target is phosphorylated product of Flourescein-QSPKKG-CONH2 (after overnight incubation with ATP and CDK2). Nature of the assay: fluorescence polarization in a cuvette, 50 mM TAPS pH 9.0, large excess of poly-D-lysine; about 38 mP without polylysine. In general terms: Fluorescence polarisation rises when a labelled molecule tumbles more slowly, as on binding a larger partner.
Assay [2] addresses Flourescein-QSPKKG-CONH2 (neutrally charged phosphorylatable CDK2 substrate). Nature of the assay: fluorescence polarization in a cuvette, 50 mM TAPS pH 9.0, poly-D-lysine added in aliquots; about 38 mP without polylysine.
For assay [3], the target named is phosphorylated product of Flourescein-QSPKKG-CONH2 (after overnight incubation with ATP and CDK2). The description is as above.

As to poly-D-Lysine, the fluorescence polarization in assay [1] was 100 mP; in assay [2] it was 42 mP; in assay [3], 72 mP.
